Earlier results on two substances are cited in patent publication US20260085103A1, “LONG-ACTING INSULIN COMPOUND” (CHENGDU AODA BIOTECHNOLOGY CO., LTD, priority 2022, published 2026).

The half-life is the time in which the quantity being followed falls by half.

The conditions of series [1]: background statement, subcutaneous injection.
The conditions of series [2]: after addition of two arginines at the end of the B chain (changed from 5.4).

In the case of insulin degludec, in series [1], the duration of action entry is given as “up to 42 hours” and the half-life is 24 h.

insulin glargine: in series [2], the isoelectric point is on record as 6.7. Besides, in series [1], the duration of action was 20 to 24 h and the half-life is 12 h.
